Reference: US20260062488A1 (AbbVie / Abbott, published 2026)

Assays:
[1] = biological target: T1, cynomolgus FcγRI extracellular domain protein (cynomolgus monkey); assay: SPR (Biacore), N = 1
T1 construct: extracellular domain; also called Cyno FcγRI

[2] = biological target: T2, cynomolgus FcγRIIa extracellular domain protein (cynomolgus monkey); assay: SPR (Biacore), N = 1
T2 construct: extracellular domain; also called Cyno FcγRIIa

[3] = biological target: T3, cynomolgus FcγRIIb extracellular domain protein (cynomolgus monkey); assay: SPR (Biacore), N = 1
T3 construct: extracellular domain; also called Cyno FcγRIIb

[4] = biological target: T4, cynomolgus FcγRIII extracellular domain protein (cynomolgus monkey, UniProt Q8SPW2 17-208); assay: SPR (Biacore), N = 1
T4 construct: extracellular domain; also called Cyno FcγRIII
T4 sequence (Q8SPW2 17-208): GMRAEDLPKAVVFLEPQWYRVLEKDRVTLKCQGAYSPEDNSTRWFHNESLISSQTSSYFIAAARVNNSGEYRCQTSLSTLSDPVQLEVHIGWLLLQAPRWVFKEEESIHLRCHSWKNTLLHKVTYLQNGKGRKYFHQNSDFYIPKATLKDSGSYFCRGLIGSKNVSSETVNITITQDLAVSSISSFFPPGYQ

[5] = biological target: T5, cynomolgus α4β7 integrin (cynomolgus monkey); assay: FACS, cyno CD4+ total
T5 construct: whole, on cells; On CHOK1-cα4β7 cells or cynomolgus blood lymphocytes; also called cα4β7; cyno α4β7

[6] = biological target: T5, cynomolgus α4β7 integrin; assay: FACS, cyno CD4+ total; remark: listed apart in the source
[7] = biological target: T5, cynomolgus α4β7 integrin; assay: FACS, cyno CD8+ naïve
[8] = biological target: T5, cynomolgus α4β7 integrin; assay: FACS, cyno CD8+ memory
[9] = biological target: T5, cynomolgus α4β7 integrin; assay: FACS, cyno CD4+ memory
[10] = biological target: T5, cynomolgus α4β7 integrin; assay: FACS, cyno CD8+ memory; remark: listed apart in the source
[11] = biological target: T6, rabbit α4β7 integrin (rabbit); assay: FACS, rabbit lymphocytes
T6 construct: whole, on cells; On rabbit PBMCs

[12] = biological target: T5, cynomolgus α4β7 integrin; assay: FACS, cynomolgus lymphocytes
[13] = biological target: T5, cynomolgus α4β7 integrin; assay: FACS, cyno CD4+ naïve T cells
[14] = biological target: T5, cynomolgus α4β7 integrin; assay: FACS, cyno CD8+ naïve T cells
[15] = biological target: T5, cynomolgus α4β7 integrin; assay: binding to cyno CD4+ Tm cells
[16] = biological target: T5, cynomolgus α4β7 integrin; assay: FACS, cyno CD8+ memory T cells
[17] = biological target: T1, cynomolgus FcγRI extracellular domain …; assay: SPR (Biacore T200), FcγR captured, antibody injected
[18] = biological target: T4, cynomolgus FcγRIII extracellular domain …; assay: as above
[19] = biological target: T5, cynomolgus α4β7 integrin; assay: binding, cynomolgus CD8+ memory T cells, summary table
[20] = biological target: T7, FcgRIIIB SH (human, UniProt O75015); assay: flow cytometry on CHO-K1 cells expressing the receptor (curve FcgRIIIB SH), monomeric antibody, F(ab')2 anti-human IgG AF647; N=1
T7 construct: cell surface, on engineered CHO-K1 cells; the list of molecules has only an FcγRIIIb on CHO-K1 cells without the allotype; also called human FcγRIIIb (SH) on CHO-K1 cells
T7 sequence (O75015 17-200 N65S/A78D limits assumed): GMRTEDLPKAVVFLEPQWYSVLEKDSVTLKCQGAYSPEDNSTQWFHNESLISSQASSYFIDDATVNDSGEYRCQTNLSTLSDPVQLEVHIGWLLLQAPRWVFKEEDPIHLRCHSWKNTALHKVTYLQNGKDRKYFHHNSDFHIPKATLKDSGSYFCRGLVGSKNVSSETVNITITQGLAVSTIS

[21] = biological target: T8, FcgRIIA H131 (human, UniProt P12318); assay: flow cytometry on CHO-K1 cells expressing the receptor (curve FcgRIIA H131), monomeric antibody, F(ab')2 anti-human IgG AF647; N=1
T8 construct: cell surface, on engineered CHO-K1 cells; the list of molecules has only an FcγRIIa on CHO-K1 cells without the variant; also called human FcγRIIa (H131) on CHO-K1 cells
T8 sequence (receptor chain, looked up): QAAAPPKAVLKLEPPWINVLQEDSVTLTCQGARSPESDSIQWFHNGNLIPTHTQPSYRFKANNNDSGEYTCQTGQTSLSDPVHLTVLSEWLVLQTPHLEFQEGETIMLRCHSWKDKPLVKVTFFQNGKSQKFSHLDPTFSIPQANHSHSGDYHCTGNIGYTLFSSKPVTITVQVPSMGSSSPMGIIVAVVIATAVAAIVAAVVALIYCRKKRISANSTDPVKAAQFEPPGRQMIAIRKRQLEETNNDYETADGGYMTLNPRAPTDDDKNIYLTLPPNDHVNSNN

[22] = biological target: T9, FcgRIIIB NA1 (human, UniProt O75015); assay: flow cytometry on CHO-K1 cells expressing the receptor (curve FcgRIIIB NA1), monomeric antibody, F(ab')2 anti-human IgG AF647; N=1
T9 construct: cell surface, on engineered CHO-K1 cells; the list of molecules has only an FcγRIIIb on CHO-K1 cells without the allotype; also called human FcγRIIIb (NA1) on CHO-K1 cells
T9 sequence (O75015 other isoform, or with tags, fused parts or gaps limits assumed): as the sequence (O75015 17-200 N65S/A78D limits assumed) above, with S20R, S49N, D62A, N66D, I90V counted along it

[23] = biological target: T10, FcgRIIIB NA2 (human, UniProt O75015); assay: flow cytometry on CHO-K1 cells expressing the receptor (curve FcgRIIIB NA2), monomeric antibody, F(ab')2 anti-human IgG AF647; N=1
T10 construct: cell surface, on engineered CHO-K1 cells; the list of molecules has only an FcγRIIIb on CHO-K1 cells without the allotype; also called human FcγRIIIb (NA2) on CHO-K1 cells
T10 sequence (O75015 17-200 N65S limits assumed): as the sequence (O75015 17-200 N65S/A78D limits assumed) above, with D62A counted along it

[24] = biological target: T11, human FcγRIIIa (F176) on CHO-K1 cells (human, UniProt P08637 17-254); assay: flow cytometry on CHO-K1 cells expressing the receptor (curve FcgRIIIA F176), monomeric antibody, F(ab')2 anti-human IgG AF647; N=1
T11 construct: whole, on cells; also called F158
T11 sequence (P08637 17-254): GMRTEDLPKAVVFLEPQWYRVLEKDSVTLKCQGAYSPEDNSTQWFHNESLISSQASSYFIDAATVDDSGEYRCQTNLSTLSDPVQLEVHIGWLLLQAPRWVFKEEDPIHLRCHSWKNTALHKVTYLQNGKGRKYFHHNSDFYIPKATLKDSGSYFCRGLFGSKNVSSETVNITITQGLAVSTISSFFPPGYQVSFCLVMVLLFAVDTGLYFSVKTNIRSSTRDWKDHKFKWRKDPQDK

[25] = biological target: T12, human FcγRIIIa (V176) on CHO-K1 cells (human, UniProt P08637 17-254); assay: flow cytometry on CHO-K1 cells expressing the receptor (curve FcgRIIIA V176), monomeric antibody, F(ab')2 anti-human IgG AF647; N=1
T12 construct: whole, on cells; also called V158
T12 sequence (P08637 17-254 F176V limits assumed): as the sequence (P08637 17-254) above, with F160V counted along it

B1: Ab-h1.9d-WT (antibody, human IgG1, kappa)
heavy: not shown
light: DIQMTQSPSSLSASVGDRVTITCHASQDISDNIGWLQQKPGKSFKLLIYHGTNLEDGVPSRFSGSGSGTDYTLTISSLQPEDFATYYCVQYAQFPWTFGGGTKVEIKRTVAAPSVFIFPPSDEQLKSGTASVVCLLNNFYPREAKVQWKVDNALQSGNSQESVTEQDSKDSTYSLSSTLTLSKADYEKHKVYACEVTHQGLSSPVTKSFNRGEC
notes: IgG1/kappa with D356E and L358M (EU); also called Anti-human α4β7 (AC-166667) hu IgG1/k WT mAb
[1]
  Kd: 1.4 nM
[2]
  Kd: 8200 nM
[3]
  Kd: 7100 nM
[4]
  Kd: 160 nM
[5]
  EC50: 0.03 nM
[6]
  EC50: 0.03 nM
[7]
  EC50: 0.042 nM
[8]
  EC50: 0.036 nM
[9]
  EC50: 0.01 nM
[10]
  EC50: 0.036 nM
[11]
  EC50: 0.089 nM
[12]
  EC50: 0.062 nM
[13]
  EC50: 0.045 nM
[14]
  EC50: 0.042 nM
[15]
  EC50: 0.01 nM
[16]
  EC50: 0.036 nM
[17]
  Kd: 12 nM
[18]
  Kd: 280 nM
[19]
  EC50: 0.036 nM
[20]
  binding result: binds
[21]
  binding result: binds
[22]
  binding result: binds
[23]
  binding result: binds
[24]
  binding result: binds
[25]
  binding result: binds
